From the supplement of paper PMC9112550, “Optimization of the antimicrobial peptide Bac7 by deep mutational scanning” (BMC Biology, 2022)

System: Escherichia coli TOP10
Assay: shrunken log2 fold change of peptide-encoding DNA abundance (4.5 h post-induction vs induction); higher = less antimicrobial activity (less host growth inhibition)
Conditions: time post-induction: 4.5 h; library: site-saturation at positions 5, 18, 19, 20
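Also: peptides expressed intracellularly from a pBAD plasmid library in pooled LB shake-flask culture, induced with 0.3% L-arabinose, DNA abundance read by NGS, three biological replicates, DESeq2 with apeglm shrinkage.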

RRIRYRPPRLPRPRPRPAHEPRP
shrunken log2 fold change: 0.241

RRIRYRPPRLPRPRPRPAHHPRP
shrunken log2 fold change: -0.602

RRIRYRPPRLPRPRPRPAHMPRP
shrunken log2 fold change: -0.015

RRIRYRPPRLPRPRPRPAHNPRP
shrunken log2 fold change: -0.409

RRIRYRPPRLPRPRPRPAHYPRP
shrunken log2 fold change: -0.18

RRIRYRPPRLPRPRPRPALDPRP
shrunken log2 fold change: -0.132

RRIRYRPPRLPRPRPRPANVPRP
shrunken log2 fold change: -0.00291

RRIRYRPPRLPRPRPRPAPMPRP
shrunken log2 fold change: -0.0449

RRIRYRPPRLPRPRPRPAQCPRP
shrunken log2 fold change: -0.0254

RRIRYRPPRLPRPRPRPAQDPRP
shrunken log2 fold change: 0.188

RRIRYRPPRLPRPRPRPAQRPRP
shrunken log2 fold change: -0.0772

RRIRYRPPRLPRPRPRPARIPRP
shrunken log2 fold change: 0.0141

RRIRYRPPRLPRPRPRPASAPRP
shrunken log2 fold change: 0.0949

RRIRYRPPRLPRPRPRPASEPRP
shrunken log2 fold change: -0.0202

RRIRYRPPRLPRPRPRPASKPRP
shrunken log2 fold change: -1.29e-05

RRIRYRPPRLPRPRPRPATPPRP
shrunken log2 fold change: 0.158

RRIRYRPPRLPRPRPRPAVGPRP
shrunken log2 fold change: 0.0398

RRIRYRPPRLPRPRPRPAVPPRP
shrunken log2 fold change: -0.625

RRIRYRPPRLPRPRPRPCAVPRP
shrunken log2 fold change: -0.269

RRIRYRPPRLPRPRPRPCCNPRP
shrunken log2 fold change: 0.00367

RRIRYRPPRLPRPRPRPCCRPRP
shrunken log2 fold change: -0.732

RRIRYRPPRLPRPRPRPCFVPRP
shrunken log2 fold change: -1.09

RRIRYRPPRLPRPRPRPCGGPRP
shrunken log2 fold change: 0.00427

RRIRYRPPRLPRPRPRPCHVPRP
shrunken log2 fold change: -0.0447

RRIRYRPPRLPRPRPRPCLEPRP
shrunken log2 fold change: 0.139

RRIRYRPPRLPRPRPRPCLGPRP
shrunken log2 fold change: -0.231

RRIRYRPPRLPRPRPRPCMDPRP
shrunken log2 fold change: -0.214

RRIRYRPPRLPRPRPRPCMMPRP
shrunken log2 fold change: 0.00911

RRIRYRPPRLPRPRPRPCMYPRP
shrunken log2 fold change: -0.101

RRIRYRPPRLPRPRPRPCPLPRP
shrunken log2 fold change: -1.91

RRIRYRPPRLPRPRPRPCTQPRP
shrunken log2 fold change: -1.32

RRIRYRPPRLPRPRPRPCVGPRP
shrunken log2 fold change: -1.87

RRIRYRPPRLPRPRPRPCWCPRP
shrunken log2 fold change: -0.0193

RRIRYRPPRLPRPRPRPCWQPRP
shrunken log2 fold change: 0.013

RRIRYRPPRLPRPRPRPCWTPRP
shrunken log2 fold change: -0.374

RRIRYRPPRLPRPRPRPCYCPRP
shrunken log2 fold change: -0.185

RRIRYRPPRLPRPRPRPCYPPRP
shrunken log2 fold change: -0.37

RRIRYRPPRLPRPRPRPDACPRP
shrunken log2 fold change: -0.045

RRIRYRPPRLPRPRPRPDAEPRP
shrunken log2 fold change: -0.0535

RRIRYRPPRLPRPRPRPDDFPRP
shrunken log2 fold change: -0.0153

RRIRYRPPRLPRPRPRPDEPPRP
shrunken log2 fold change: -0.0449

RRIRYRPPRLPRPRPRPDFNPRP
shrunken log2 fold change: -1.62

RRIRYRPPRLPRPRPRPDHDPRP
shrunken log2 fold change: -0.133

RRIRYRPPRLPRPRPRPDHSPRP
shrunken log2 fold change: -0.889

RRIRYRPPRLPRPRPRPDIHPRP
shrunken log2 fold change: -0.549

RRIRYRPPRLPRPRPRPDIKPRP
shrunken log2 fold change: -0.602

RRIRYRPPRLPRPRPRPDILPRP
shrunken log2 fold change: 0.0101

RRIRYRPPRLPRPRPRPDMTPRP
shrunken log2 fold change: -0.149

RRIRYRPPRLPRPRPRPDPHPRP
shrunken log2 fold change: -0.356

RRIRYRPPRLPRPRPRPDPTPRP
shrunken log2 fold change: -0.435

RRIRYRPPRLPRPRPRPDQIPRP
shrunken log2 fold change: 0.0304

RRIRYRPPRLPRPRPRPDRAPRP
shrunken log2 fold change: -0.0598

RRIRYRPPRLPRPRPRPDRMPRP
shrunken log2 fold change: -0.566

RRIRYRPPRLPRPRPRPDSRPRP
shrunken log2 fold change: -0.0156

RRIRYRPPRLPRPRPRPDSSPRP
shrunken log2 fold change: -0.0431

RRIRYRPPRLPRPRPRPEFEPRP
shrunken log2 fold change: -0.00195

RRIRYRPPRLPRPRPRPEFHPRP
shrunken log2 fold change: 0.00393

RRIRYRPPRLPRPRPRPEFNPRP
shrunken log2 fold change: -0.221

RRIRYRPPRLPRPRPRPEFRPRP
shrunken log2 fold change: -0.0207

RRIRYRPPRLPRPRPRPEFTPRP
shrunken log2 fold change: -0.0369

RRIRYRPPRLPRPRPRPEGMPRP
shrunken log2 fold change: 0.0329

RRIRYRPPRLPRPRPRPEHMPRP
shrunken log2 fold change: -0.304

RRIRYRPPRLPRPRPRPELDPRP
shrunken log2 fold change: -0.165

RRIRYRPPRLPRPRPRPEMDPRP
shrunken log2 fold change: -0.338

RRIRYRPPRLPRPRPRPEMHPRP
shrunken log2 fold change: 2.42

RRIRYRPPRLPRPRPRPEPNPRP
shrunken log2 fold change: -0.0357

RRIRYRPPRLPRPRPRPEPWPRP
shrunken log2 fold change: 0.00405

RRIRYRPPRLPRPRPRPERIPRP
shrunken log2 fold change: -0.21

RRIRYRPPRLPRPRPRPERKPRP
shrunken log2 fold change: -0.109

RRIRYRPPRLPRPRPRPETCPRP
shrunken log2 fold change: -0.00674

RRIRYRPPRLPRPRPRPETEPRP
shrunken log2 fold change: 0.0184

RRIRYRPPRLPRPRPRPETPPRP
shrunken log2 fold change: 0.156

RRIRYRPPRLPRPRPRPETSPRP
shrunken log2 fold change: 0.014

RRIRYRPPRLPRPRPRPETVPRP
shrunken log2 fold change: -0.0477

RRIRYRPPRLPRPRPRPEVIPRP
shrunken log2 fold change: -0.01

RRIRYRPPRLPRPRPRPEYQPRP
shrunken log2 fold change: -0.00141

RRIRYRPPRLPRPRPRPEYSPRP
shrunken log2 fold change: -0.0605

RRIRYRPPRLPRPRPRPFAQPRP
shrunken log2 fold change: -0.159

RRIRYRPPRLPRPRPRPFCNPRP
shrunken log2 fold change: -0.0455

RRIRYRPPRLPRPRPRPFEWPRP
shrunken log2 fold change: 0.0273

RRIRYRPPRLPRPRPRPFFFPRP
shrunken log2 fold change: -0.253

RRIRYRPPRLPRPRPRPFFGPRP
shrunken log2 fold change: -0.225

RRIRYRPPRLPRPRPRPFFKPRP
shrunken log2 fold change: -0.518

RRIRYRPPRLPRPRPRPFFSPRP
shrunken log2 fold change: -0.77

RRIRYRPPRLPRPRPRPFIFPRP
shrunken log2 fold change: -1.01

RRIRYRPPRLPRPRPRPFIWPRP
shrunken log2 fold change: -0.2

RRIRYRPPRLPRPRPRPFKHPRP
shrunken log2 fold change: -0.349

RRIRYRPPRLPRPRPRPFLLPRP
shrunken log2 fold change: -1.19

RRIRYRPPRLPRPRPRPFMMPRP
shrunken log2 fold change: -0.108

RRIRYRPPRLPRPRPRPFNMPRP
shrunken log2 fold change: -0.202

RRIRYRPPRLPRPRPRPFPEPRP
shrunken log2 fold change: -0.423

RRIRYRPPRLPRPRPRPFPQPRP
shrunken log2 fold change: -0.137

RRIRYRPPRLPRPRPRPFQKPRP
shrunken log2 fold change: -0.0884

RRIRYRPPRLPRPRPRPFRFPRP
shrunken log2 fold change: -0.83

RRIRYRPPRLPRPRPRPFSAPRP
shrunken log2 fold change: -1.07

RRIRYRPPRLPRPRPRPFSMPRP
shrunken log2 fold change: -0.00208

RRIRYRPPRLPRPRPRPFSRPRP
shrunken log2 fold change: -0.625

RRIRYRPPRLPRPRPRPFTDPRP
shrunken log2 fold change: -0.583

RRIRYRPPRLPRPRPRPFTNPRP
shrunken log2 fold change: 0.0209

RRIRYRPPRLPRPRPRPFVCPRP
shrunken log2 fold change: -0.0345

RRIRYRPPRLPRPRPRPFWMPRP
shrunken log2 fold change: -0.297

RRIRYRPPRLPRPRPRPFYFPRP
shrunken log2 fold change: -0.961

RRIRYRPPRLPRPRPRPGAHPRP
shrunken log2 fold change: -0.818

RRIRYRPPRLPRPRPRPGDMPRP
shrunken log2 fold change: -0.464

RRIRYRPPRLPRPRPRPGFHPRP
shrunken log2 fold change: -0.564

RRIRYRPPRLPRPRPRPGFKPRP
shrunken log2 fold change: -0.579

RRIRYRPPRLPRPRPRPGGNPRP
shrunken log2 fold change: -0.0562

RRIRYRPPRLPRPRPRPGGYPRP
shrunken log2 fold change: -0.00146

RRIRYRPPRLPRPRPRPGHEPRP
shrunken log2 fold change: -0.18

RRIRYRPPRLPRPRPRPGLQPRP
shrunken log2 fold change: -0.0156

RRIRYRPPRLPRPRPRPGMKPRP
shrunken log2 fold change: -0.067

RRIRYRPPRLPRPRPRPGNAPRP
shrunken log2 fold change: 0.0744

RRIRYRPPRLPRPRPRPGNFPRP
shrunken log2 fold change: -0.307

RRIRYRPPRLPRPRPRPGNIPRP
shrunken log2 fold change: -0.153

RRIRYRPPRLPRPRPRPGNMPRP
shrunken log2 fold change: -0.55

RRIRYRPPRLPRPRPRPGPCPRP
shrunken log2 fold change: -0.227

RRIRYRPPRLPRPRPRPGPDPRP
shrunken log2 fold change: 0.184

RRIRYRPPRLPRPRPRPGPKPRP
shrunken log2 fold change: 0.185

RRIRYRPPRLPRPRPRPGQSPRP
shrunken log2 fold change: -0.108

RRIRYRPPRLPRPRPRPGTAPRP
shrunken log2 fold change: -0.39

RRIRYRPPRLPRPRPRPGTKPRP
shrunken log2 fold change: -0.0505

RRIRYRPPRLPRPRPRPGVCPRP
shrunken log2 fold change: -0.0493

RRIRYRPPRLPRPRPRPGWCPRP
shrunken log2 fold change: -0.128

RRIRYRPPRLPRPRPRPGWHPRP
shrunken log2 fold change: 0.00731

RRIRYRPPRLPRPRPRPGYGPRP
shrunken log2 fold change: -0.541

RRIRYRPPRLPRPRPRPHCIPRP
shrunken log2 fold change: -0.0129

RRIRYRPPRLPRPRPRPHCMPRP
shrunken log2 fold change: -0.161

RRIRYRPPRLPRPRPRPHDFPRP
shrunken log2 fold change: -0.167

RRIRYRPPRLPRPRPRPHDLPRP
shrunken log2 fold change: -0.00151

RRIRYRPPRLPRPRPRPHDNPRP
shrunken log2 fold change: -1.04

RRIRYRPPRLPRPRPRPHFVPRP
shrunken log2 fold change: -0.182

RRIRYRPPRLPRPRPRPHGLPRP
shrunken log2 fold change: 0.0126

RRIRYRPPRLPRPRPRPHHQPRP
shrunken log2 fold change: -1.06

RRIRYRPPRLPRPRPRPHISPRP
shrunken log2 fold change: -0.317

RRIRYRPPRLPRPRPRPHNKPRP
shrunken log2 fold change: -0.718

RRIRYRPPRLPRPRPRPHNNPRP
shrunken log2 fold change: -1.16

RRIRYRPPRLPRPRPRPHNQPRP
shrunken log2 fold change: -0.753

RRIRYRPPRLPRPRPRPHNRPRP
shrunken log2 fold change: -0.245

RRIRYRPPRLPRPRPRPHPAPRP
shrunken log2 fold change: -0.333

RRIRYRPPRLPRPRPRPHQDPRP
shrunken log2 fold change: -0.0582

RRIRYRPPRLPRPRPRPHQGPRP
shrunken log2 fold change: -0.142

RRIRYRPPRLPRPRPRPHQQPRP
shrunken log2 fold change: -0.0439

RRIRYRPPRLPRPRPRPHRGPRP
shrunken log2 fold change: -0.192

RRIRYRPPRLPRPRPRPHRMPRP
shrunken log2 fold change: -1.51

RRIRYRPPRLPRPRPRPHRPPRP
shrunken log2 fold change: 0.0424

RRIRYRPPRLPRPRPRPHRYPRP
shrunken log2 fold change: -0.41

RRIRYRPPRLPRPRPRPHSFPRP
shrunken log2 fold change: -0.00356

RRIRYRPPRLPRPRPRPHSSPRP
shrunken log2 fold change: -0.207

RRIRYRPPRLPRPRPRPHTHPRP
shrunken log2 fold change: -1.17

RRIRYRPPRLPRPRPRPHTYPRP
shrunken log2 fold change: -0.189
